Reference: the nanobody polyreactivity screen of Harvey et al. (2022)

Assay: yeast display, Sf9 membrane polyspecificity reagent, FACS + sequencing; frameworks hold sequencing errors
How it was run: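 After 36–48 hours of galactose induction, yeast (Saccharomyces cerevisiae BJ5465) displaying a synthetic nanobody library were stained at 4 °C for 1 hour with 10% biotinylated, detergent-solubilized Sf9 membrane reagent. Streptavidin microbeads enriched the stained cells before FACS sorting into low and high (top ~1%) gates on anti-HA and streptavidin fluorescence. Each clone's polyreactivity label reflects its gate of origin.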

| Sequence | polyreactivity (PSR sort gate) |
| --- | --- |
| QVQLVESGGGLVQAGGSLRLSCAASGRIFGGYAMGWYRQAPGKERELVAAITSSGSTNYADSVKGRFTISRDNAKNTVYLQMNSLKPEDTAVYYCATDFKTVYYWWGMDYWGQGTQVTVSS | low polyreactivity |
| QVQLVESGGGLVQAGGSLGLSCAASGFTFRNYAMGCYRQAPGKERELVATLSASSGSTYYADSVKGRFTISRDNAKNTVYLQMNSLKPEDTAVYYCAAGLSGYSRKMYYWGQGTQVTESS | high polyreactivity |
| QLQLVESGGGLVPAGGSLRLSCASSGSIFKTYAMGWSRQAPGKDRELVAAIRGSGGSTYYADSVKGRFTIARDYAKNTVYLQMKSLKPEDTAFYYCARVGTKYRTNFFNGNDDWGQGTQVTVSS | low polyreactivity |
| QVQLVESGGGLVQAGGSLRLTCAASGSIFYSYAMGWYRQAPGKERELVAAISWDASTYYADSVNGRFTISRDNAKNTVYLQMHSLKPEDSAVYYCNADIPYFFVFDAYDYWGQGTQVTVSS | low polyreactivity |
| QVQLVESGGGLVQAGGSLRLSCAASGRIFFNSAMGWYRQAPGKERELVAAIRGGGSTYADSVKGRFTISRDNAKNTVYLQMNSLKPEDTAVYYCAARYSGSPYHTRRYYYWGQGTQVTVSS | high polyreactivity |
| QVQLVESGGGLVQAGGSLRLSCAASGSIFSLYVMGWYRQAPGKERELGAAITSGGRTNYADSVKGRFTISRDNAKNTVYLLMNSLKPEDTAVYDCAARFPSRYGRYGYWGQGTQVTVSS | high polyreactivity |
| QLQLQESGRGLVQAGGSLRLSCAASGNIVDADIMGWYRQAPGKERELVASITDGGSTNYADSVKGRFTISRDNAKNTVYLQMNSLKTEDTAVYYCAAIAYPVIPTYFDYDSEYFYWGQGTQVTVSS | low polyreactivity |
| QVQLVESGGGLVQAGGSLRLSCAASGRSIAYYAMGWYRQAPGKERELVAAINWSGGRTYYADSVKGRFTLSRDNAKNTVYLQMNSLKPEETAVYYCNAVYNESRGSYQDDYWGQGTQVTVSS | high polyreactivity |
| QVQLVESGGGLVQAGGSLRLSCAASGSIFRDYTMGWYRQAPGKERELVAAIRQDGGTTTYADSVKGRFTISRDNAKNTVYLQMNSLKPEDTAVYLWGQGTQVTVSS | low polyreactivity |
| QVQLVESGGGLVQAGGSLRLSCAAYGSIFEGNPMGWYRQAPGKERELVASISGDGSTNYADSVKGRFTISRDNAKNTVYLQMNSLKPEDTAVYYCNADTISEPGFHMDYWGQGTQVTVSS | low polyreactivity |
| QVQLVESGGGLVQAGGSLRLSCAASGRIFAYNAMGWYRQAPGKEREVVAAIDSGGDTNYADSVKGRFTISRDNAKNTVYLQMNSLKPEDTAVYYCNVTYSGQATFAYTDSARYDYWGQGTQVTVSS | low polyreactivity |
| QVQLVESGGGLVQAGGSLRLSCAASGSTFAVNAMGWYRQAPGKERELVAAISDSDGSTFYADSVKGRFTISRDNAKNTVYLQMNSLKPEDTAVYYCAATVYRVFRYSYLYYYWGQGTQVTVSS | low polyreactivity |
| QVQLVESGGGLVQAGGSLRLSCAASGFIFRYYAMGWARQAPAKERELVAAISWSGTRTFYADSVKARFTISRDNAKNTVYLQMNSLKPEDTAVYYCAAETTGYDSYIQYEYWGQGTQVTVSS | high polyreactivity |
| QVQLVESGGGLVQAGGSLRLSCAASGRTFNKYAMGWYRQAPGKERELVAAISTRGGSTYYADSVKGRFTISRDNAKNNVYLQMNSLKPEDTAVYYCAARLTTVGQGFDYWGQGTKVTVSS | high polyreactivity |
| QVQLVESGGGLVQAGCSLRLSCAASGFTFHTYAMGWYRQAPGKERELVAAITGRGGSTYYADSVKGRFTISRDNAKNTVYLQMNSLKPEDTAVYYCTAYRRGWGDRMYYWGLGTQVTVSS | high polyreactivity |
| QVQLVESGGGLVQAGGSLRLICAASGSIFVGNAMGWYRQAPGKERELVAAITSSGGRTYYADSVKGRFTISRDNAKNTVYLQMNSLKPEDTAVYYCNTSRTRRFSLWAYDYWGQGTQVTVSS | high polyreactivity |
| QVQLVESGGGLVQAGGSRLLSCAASGGTFSFYAMGWYRQAPAKEREFVAAITASDGSTYYADSLTGRFTISRDNAKNTVYLQMNSLKPEDTAVYYCAADAYGYKFNSWVQGTQVTVSS | low polyreactivity |
| QVQLVESGGGLVQAGGSLRLSCAASGSILYLNAMGWYRQAPGKERELVAAITWSGGSTSYADSVKGRFTISRDNAKNTVYLQMISLKPEDTAVYYCAAVRRGYGGVYYAGGYWGQGTQVTVSS | low polyreactivity |
| QVHLVESGGGLVQAGGSLRLSCAASGRTFDRYDMGWYRQAPGKEWELVATISSSGGSTYYADSVKGRFTISRDNEKNTVYLQMNSLKPEDTAVYYCAADPSGDYWGQGTQVTVSS | low polyreactivity |
| QVQLVESGGGLVQAGGSLRLSCAASGFTFPVNAMGWYRQAPGKERELVAAITKRGGGTYYADSVKGRFTISRDNAKNTVYLQMNSLKPEDTAVYYCAARSFWPYYGGDYDYWGQGTQVTVSS | high polyreactivity |
| QVQLVESGGGLVQAGGSLRLSCAASGITFGYYAMGWYRQAPGKERELVAAISSGGRTYYADSVKGRFTIARDNAKNTVYLQMNSLKPEDTGVYYCAVVARHPSRMDYWGQGTQVTVSS | high polyreactivity |
